The results in this text go back to patent US20230374534, “TRANSGENIC PLANT HAVING COLD RESISTANCE OVEREXPRESSING THIOREDOXIN TRX-H2 PROTEIN” (INDUSTRY-ACADEMIC COOPERATION FOUNDATION GYEONGSANG …, published 2023).

In one data set the target is CBF1 (Arabidopsis thaliana, UniProt P93835 SEQ:1-213). As to the kind of experiment: EMSA; 1 mM DTT (reducing), poly(dI-dC), 25 C, 30 min; binding redox-dependent; gel only in figure. As to conditions: tags: His (pET28a, E. coli); label: biotin. As for the experimental part: FIGS. 3A to 3D are the results of EMSAs showing the redox-dependent binding of His-CBF1 to biotin-labeled COR15a promoter fragment (oligoprobe) in the presence of 1 mM DTT (FIG. 3A), 1 mM H₂O₂ (FIG. 3B), and a Trx system comprising 5 μM Trx-h2 (FIG. 3C) or Trx-h2(C/S) (FIG. 3D) with His-MBP as a control. FIG. 3E is the schematic representation of the COR15a promoter. P1 and P2 indicate the primer binding sites for qRT-PCR. […] (FIG. 3F) or 4° C. (FIG. 3G) for 6 h.
Chain of CBF1 (P93835 whole entry, the tested form may be a part): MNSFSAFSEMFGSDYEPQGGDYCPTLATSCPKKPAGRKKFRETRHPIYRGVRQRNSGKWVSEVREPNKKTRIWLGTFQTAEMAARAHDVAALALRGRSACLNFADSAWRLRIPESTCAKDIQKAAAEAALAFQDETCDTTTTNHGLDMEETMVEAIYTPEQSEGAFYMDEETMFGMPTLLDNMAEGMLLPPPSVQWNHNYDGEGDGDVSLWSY
To carry out EMSAs, a biotin-labeled oligonucleotide probe (Table 1) was processed using a lightshift™ chemiluminescent EMSA Kit (Thermo Fisher Scientific, Rockford, IL, USA). Recombinant CBF1 (5 μg) was incubated with 40 fmol of biotin-labeled probe and 20 μl of reaction mixture containing 25 ng/μl Poly (dl-dC) binding buffer at 25° C. for 30 min. The reaction products were resolved on a 6% polyacrylamide gels. Probes bound to CBF1 were transferred to charged Hybond-N membrane and detected by western blotting with anti-biotin antibody (Abcam, Cambridge, MA, USA).
For orientation: A gel shift assay detects complexes by their altered migration in electrophoresis.

For the next data set, the target named is MBP (control) (UniProt P0AEX9 P0AEX9:27-396). As to the kind of experiment: EMSA; His-MBP used as negative control; gel only in figure.

B1: COR15a promoter CRT/DRE probe (-275 to -253) (dsDNA)
DNA 1: ATTTCATGGCCGACCTGCTTTTT
DNA 2: AAAAAGCAGGTCGGCCATGAAAT
Consider B1, for which the binding result in the data set with CBF1 was “binds”; with MBP (control), “no binding”.
